Data on 4 molecules can be found in paper PMC10663510 (Scientific Reports, 2023).

The test system of data set [1] is T1, MSMEG-3765 (TetR-like repressor) (Mycolicibacterium (Mycobacterium) smegmatis mc2 155?), ORF:4079dac7.
T1 sequence: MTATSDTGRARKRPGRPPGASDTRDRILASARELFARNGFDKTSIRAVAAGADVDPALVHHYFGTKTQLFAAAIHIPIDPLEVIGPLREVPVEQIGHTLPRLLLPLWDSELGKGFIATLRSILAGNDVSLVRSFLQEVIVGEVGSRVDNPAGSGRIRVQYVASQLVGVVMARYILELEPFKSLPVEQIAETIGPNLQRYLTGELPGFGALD
Kind of data set: EMSA. The conditions noted are these: 20 mM HEPES pH 8.0, 75 mM NaCl, 10 mM MgCl2, 5% glycerol; 20 ul, 30 C 10 min; native 8% PAGE at 4 C.

The target in data set [2] is T2, MSMEG-3765 (TetR-like repressor) (Mycolicibacterium smegmatis, UniProt A0QYS0).
T2 construct: gene MSMEG_3765; homodimer; 211 residues per chain in model
Kind of data set: EMSA, release of […] bp operator DNA. In kind it is binding. As to conditions: 0.2 pmol DNA, 4 pmol protein, 400 or 4000 pmol drug in 20 ul; 20 mM HEPES pH 8.0, 75 mM NaCl, 10 mM MgCl2, 30 °C.

Data set [3] concerns the molecule itself. Description: circular dichroism (spectrum and thermal unfolding) compared with data back-calculated from monomer and dimer models; MSMEG-3765 in 20 mM Tris HCl, 500 mM NaCl, pH 8; CD spectra 200-260 nm at 5-85 °C; melting temperature and spectrum compared with predictions (SCooP, PDBMD2CD) from predicted monomeric and dimeric structures.

Regarding “CTGCTGGAGTCCGCCGCCTGAGCCAGGCGTCGCCGACGCCGAAATGTGTCGACGCATCGTCTTCCCACCGGACGACGGCAGGCCTAGAATTCATTGCATGATGACTTCATCGCGCGATGAATTGTCAGCGACGGGGCCCG (double strand) [133 bp MSMEG_3762 upstream operator fragment]”, in data set [1], the binding result is on record as “binds”.
For the molecule `O=C(O)c1cn(C2CC2)c2cc(N3CCNCC3)c(F)cc2c1=O` [ciprofloxacin], the “EMSA, release of 133 bp operator DNA” value in data set [2] is reported as “rifampicin or ciprofloxacin are able to directly interfear with the binding of the MSMEG-3765 TetR”.
Turning to `CO[C@H]1/C=C/O[C@@]2(C)Oc3c(C)c(O)c4c(O)c(c(/C=N/N5CCN(C)CC5)c(O)c4c3C2=O)NC(=O)/C(C)=C\C=C\[C@H](C)[C@H](O)[C@@H](C)[C@@H](O)[C@@H](C)[C@H](OC(C)=O)[C@@H]1C` [rifampicin], the “EMSA, release of 133 bp operator DNA” value in data set [2] is on record as “rifampicin or ciprofloxacin are able to directly interfear with the binding of the MSMEG-3765 TetR”.

B1: TetR-like MSMEG-3765 repressor (natural protein)
chain: MTATSDTGRARKRPGRPPGASDTRDRILASARELFARNGFDKTSIRAVAAGADVDPALVHHYFGTKTQLFAAAIHIPIDPLEVIGPLREVPVEQIGHTLPRLLLPLWDSELGKGFIATLRSILAGNDVSLVRSFLQEVIVGEVGSRVDNPAGSGRIRVQYVASQLVGVVMARYILELEPFKSLPVEQIAETIGPNLQRYLTGELPGFGALD
notes: also called MSMEG-3765 TetR recombinant protein; TetR-like MSMEG-3765 protein
As for B1, the binding result in data set [3] is “binds”.
